The chains are these.
B3: Ankyrin-G 24 ANK repeats (residues 38-855) (domain or fragment, UniProt O70511 38-855, looked up)
chain: KSDANASYLRAARAGHLEKALDYIKNGVDVNICNQNGLNALHLASKEGHVEVVSELLQREANVDAATKKGNTALHIASLAGQAEVVKVLVTNGANVNAQSQNGFTPLYMAAQENHLEVVRFLLDNGASQSLATEDGFTPLAVALQQGHDQVVSLLLENDTKGKVRLPALHIAARKDDTKAAALLLQNDTNADIESKMVVNRATESGFTPLHIAAHYGNINVATLLLNRAAAVDFTARNDITPLHVASKRGNANMVKLLLDRGAKIDAKTRDGLTPLHCGARSGHEQVVEMLLDRAAPILSKTKNGLSPLHMATQGDHLNCVQLLLQHNVPVDDVTNDYLTALHVAAHCGHYKVAKVLLDKKANPNAKALNGFTPLHIACKKNRIRVMELLLKHGASIQAVTESGLTPIHVAAFMGHVNIVSQLMHHGASPNTTNVRGETALHMAARSGQAEVVRYLVQDGAQVEAKAKDDQTPLHISARLGKADIVQQLLQQGASPNAATTSGYTPLHLSAREGHEDVAAFLLDHGASLSITTKKGFTPLHVAAKYGKLEVASLLLQKSASPDAAGKSGLTPLHVAAHYDNQKVALLLLDQGASPHAAAKNGYTPLHIAAKKNQMDIATSLLEYGADANAVTRQGIASVHLAAQEGHVDMVSLLLSRNANVNLSNKSGLTPLHLAAQEDRVNVAEVLVNQGAHVDAQTKMGYTPLHVGCHYGNIKIVNFLLQHSAKVNAKTKNGYTPLHQAAQQGHTHIINVLLQNNASPNELTVNGNTALAIARRLGYISVVDTLKVVTEEIMTTTTITEKHKMNVPETMNEVLDMS
notes: Ankyrin-G, 24 ANK repeats, residues 38-855; The ITC methods name 'Trx-AnkG R1-24'; also called AnkG R1-24; AnkG ANK repeats; source: E. coli BL21 (DE3), purified (Ni-NTA, SEC); not shown: Trx, N-terminal, kept; His6, N-terminal, kept
B4: E-cadherin C-terminal domain (residues 734-884) (domain or fragment)
chain: not shown
notes: The ITC methods name 'Trx-E-cadherin'; 15N-labelled for the HSQC titration; also called E-cadherin CTD; CTD; source: E. coli BL21 (DE3), purified (Ni-NTA, SEC); not shown: Trx, N-terminal, kept; His6, N-terminal, kept

What all share (conditions): both partners purified
Assay [1] concerns the target B3. In words: SEC-MALS; FPLC coupled with static light scattering; 70 μM E-cadherin with 70, 140, 210 or 280 μM AnkG (molar ratios 1:1 to 1:4); Superdex 200 increase; 50 mM Tris, 100 mM NaCl, 1 mM EDTA, 1 mM DTT, pH 7.8.
For assay [2], the target named is B3. In words: ITC; E-cadherin proteins in the syringe (e.g. 200 μM Trx-E-cadherin) titrated into AnkG in the cell (e.g. 20 μM Trx-AnkG R1-24); 25 °C; 50 mM Tris, 100 mM NaCl, 1 mM EDTA, 1 mM DTT, pH 7.8; one-site binding model.
Assay [3] concerns the target B4. In words: SEC-MALS; FPLC coupled with static light scattering; 70 μM E-cadherin with 70, 140, 210 or 280 μM AnkG (molar ratios 1:1 to 1:4); Superdex 200 increase; 50 mM Tris, 100 mM NaCl, 1 mM EDTA, 1 mM DTT, pH 7.8.
The target of assay [4] is T1, E-cadherin CTD–β-catenin complex (mouse, UniProt P09803 734-884; Q02248 1-781).
T1 construct: Formed beforehand for the ITC titration to AnkG R1-24; in the light scattering experiment the three proteins were mixed together; source: E. coli BL21 (DE3), purified (Ni-NTA, SEC)
In words: SEC-MALS; analytical gel filtration with static light scattering; AnkG R1-24, E-cadherin CTD and β-catenin 1-781 mixed at 1:1:1, 2:1:1, 3:1:1 and 4:1:1 molar ratios; also E-cadherin CTD with β-catenin 1-781 alone.

In assay [5] the target is T2, full-length β-catenin 1-781 (mouse, UniProt Q02248 1-781).
T2 construct: also called β-catenin FL; source: E. coli BL21 (DE3), purified (Ni-NTA, SEC)
T2 sequence (looked up): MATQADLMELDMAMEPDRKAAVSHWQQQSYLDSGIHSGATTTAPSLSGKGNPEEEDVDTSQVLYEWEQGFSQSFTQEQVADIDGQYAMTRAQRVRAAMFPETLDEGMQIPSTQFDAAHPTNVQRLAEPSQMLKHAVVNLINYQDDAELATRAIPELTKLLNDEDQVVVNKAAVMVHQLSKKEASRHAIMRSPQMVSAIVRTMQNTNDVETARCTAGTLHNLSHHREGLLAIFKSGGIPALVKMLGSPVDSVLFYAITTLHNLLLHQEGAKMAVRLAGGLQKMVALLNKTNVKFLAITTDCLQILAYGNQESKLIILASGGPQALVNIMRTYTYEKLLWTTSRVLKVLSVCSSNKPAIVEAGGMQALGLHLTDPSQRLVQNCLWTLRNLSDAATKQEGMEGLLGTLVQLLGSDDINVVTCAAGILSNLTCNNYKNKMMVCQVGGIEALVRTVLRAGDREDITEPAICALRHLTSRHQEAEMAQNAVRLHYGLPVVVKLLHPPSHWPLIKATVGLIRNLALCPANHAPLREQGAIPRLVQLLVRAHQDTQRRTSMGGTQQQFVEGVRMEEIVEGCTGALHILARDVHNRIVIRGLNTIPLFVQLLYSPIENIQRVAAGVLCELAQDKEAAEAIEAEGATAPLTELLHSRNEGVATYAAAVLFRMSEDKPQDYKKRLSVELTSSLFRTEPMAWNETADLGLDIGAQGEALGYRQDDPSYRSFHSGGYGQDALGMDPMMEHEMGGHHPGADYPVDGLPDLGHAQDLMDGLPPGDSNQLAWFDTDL
Described as above.

Where “and” joins values, the source holds several entries; their conditions need not be identical. Equal entries are not always repeated.

T1 sequence (P09803 734-884, one chain of several): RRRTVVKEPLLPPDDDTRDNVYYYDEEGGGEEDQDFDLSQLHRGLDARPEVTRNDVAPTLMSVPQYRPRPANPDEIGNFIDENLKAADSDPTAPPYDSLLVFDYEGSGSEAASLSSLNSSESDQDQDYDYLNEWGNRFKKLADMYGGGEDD

B1: E-cadherin 828-884 (including both site-2 and site-3) (domain or fragment)
chain: not shown
notes: source: E. coli BL21 (DE3), purified (Ni-NTA, SEC); not shown: Trx, N-terminal, kept; His6, N-terminal, kept
On to B1, for which, in assay [1], the “stoichiometry N” value was determined as 1. In assay [2], this molecule yielded a Kd of roughly 1900 nM.

B2: E-cadherin residues 854-869 (site-3) (domain or fragment, mouse, UniProt P09803 854-869, looked up)
chain: ESDQDQDYDYLNEWGN
notes: E-cadherin, mouse, residues 854-869; also called E-cadherin site-3; source: E. coli BL21 (DE3), purified (Ni-NTA, SEC); not shown: Trx, N-terminal, kept; His6, N-terminal, kept
As for B2, in assay [2], the Kd is roughly 1800 nM. As to B3, the “stoichiometry N” value in assay [3] is 1 AnkG R1-24 per E-cadherin CTD and 2 AnkG R1-24 per E-cadherin CTD; in assay [4], 1 to 2 AnkG R1-24 per E-cadherin CTD and β-catenin.

Regarding B4, in assay [2], the Kd is roughly 1300 nM and the “stoichiometry N” value was roughly 0.22. Further, in assay [5], the binding result is given as “binds”.

B5: E-cadherin residues 828-842 (site-2) (domain or fragment, mouse, UniProt P09803 828-842, looked up)
chain: PYDSLLVFDYEGSGS
notes: For the methyl-TROSY NMR fused to the N-terminus of AnkG R8-24; also called E-cadherin site-2; source: E. coli BL21 (DE3), purified (Ni-NTA, SEC); not shown: Trx, N-terminal, kept; His6, N-terminal, kept
Molecule B5 gave a Kd in assay [2] of roughly 1900 nM.

B6: E-cadherin residues 755-770 (site-1) (domain or fragment, mouse, UniProt P09803 755-770, looked up)
chain: YYYDEEGGGEEDQDFD
notes: E-cadherin, mouse, residues 755-770; also called E-cadherin site-1; source: E. coli BL21 (DE3), purified (Ni-NTA, SEC); not shown: Trx, N-terminal, kept; His6, N-terminal, kept
B6: the Kd in assay [2] was roughly 900 nM.

Values taken from article PMC10611751, “Dynamic interactions between E-cadherin and Ankyrin-G mediate epithelial cell polarity maintenance” (Nature Communications, 2023).
